Where two headings read alike, the source gives them in different places.
Key:
[1] = biological target: T1, HER3 extracellular domain recombinant protein (human, UniProt P21860 20-643); experiment: SPR, ProteOn XPR36; compared with the chimeric antibody
T1 construct: extracellular domain; also called HER3 extracellular domain protein; HER3 protein
Description: (§1) And the channels were turned to horizontal position, and Channels 1-5 were injected with 20 nM, 10 nM, 5 nM, 2.5 nM, 1.25 nM of samples of HER3 extracellular domain protein respectively, and Channel 6 was injected with buffer. 5 kinetic response curves were obtained, respectively representing the results of the reaction between different concentrations of antigen and the captured antibody. The Langmuir model was used to calculate the affinity constants KD (M) of each chimeric antibody and humanized antibody mutant.

[2] = biological target: T1, HER3 extracellular domain recombinant …; experiment: SPR, ProteOn XPR36; antibody captured by goat anti-human antibody, HER3 extracellular domain 1.25-20 nM as analyte, Langmuir model
Description: as §1

[3] = biological target: T1, HER3 extracellular domain recombinant …; experiment: as above; remark: listed apart in the source
Description: as §1

T1 sequence (P21860 20-643): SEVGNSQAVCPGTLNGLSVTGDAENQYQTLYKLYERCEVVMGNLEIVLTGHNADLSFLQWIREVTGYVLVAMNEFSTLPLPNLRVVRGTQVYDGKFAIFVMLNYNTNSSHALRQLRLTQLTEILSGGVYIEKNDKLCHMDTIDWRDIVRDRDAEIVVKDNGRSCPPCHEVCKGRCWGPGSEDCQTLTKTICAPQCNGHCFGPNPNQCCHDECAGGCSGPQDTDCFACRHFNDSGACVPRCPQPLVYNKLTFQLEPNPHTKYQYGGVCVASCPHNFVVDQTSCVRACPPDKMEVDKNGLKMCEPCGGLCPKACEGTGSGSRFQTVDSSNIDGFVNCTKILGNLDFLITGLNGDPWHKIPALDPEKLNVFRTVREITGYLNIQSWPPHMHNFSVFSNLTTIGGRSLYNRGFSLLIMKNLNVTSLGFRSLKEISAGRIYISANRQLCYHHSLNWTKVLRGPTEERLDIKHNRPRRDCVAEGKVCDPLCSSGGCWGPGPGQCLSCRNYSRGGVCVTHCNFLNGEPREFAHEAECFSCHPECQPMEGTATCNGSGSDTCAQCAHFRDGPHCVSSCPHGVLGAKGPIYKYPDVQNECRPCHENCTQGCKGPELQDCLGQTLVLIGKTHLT

Row | fold lower affinity than the chimeric antibody [1] [fold] | Kd [2] [nM] | koff [2] [s⁻¹] | kon [2] [M⁻¹ s⁻¹] | fold of the affinity constant of the chimeric antibody [1] [fold] | Kd [3] [nM] | koff [3] [s⁻¹] | kon [3] [M⁻¹ s⁻¹] | fold difference in affinity from the chimeric antibody [1] [fold] | Binder
1 | – | – | – | – | – | 0.595 | 0.000502 | 843000 | ~2 | humanized antibody hu1044-1 (VL69 back mutation) (antibody, human IgG1, V domains shown, h1044-0 with Gly to Ser at VL69) VH: QVQLVQSGAEVKKPGSSVKVSCKASGGTFSNYWIDWVRQAPGQGLEWMGEILPGSGGTDYNEKFKGRVTITADTSTSTAYMELSSLRSEDTAVYYCARDDYDVFAYWGQGTLVTVSS VL: DIVMTQSPGTLSLSPGERATLSCRSSKSLLHSNGITYLYWYQQKPGQAPRLLIYQMSNLASGIPDRFSSSGSGTDFTLTISRLEPEDFAVYYCAQNLELPWTFGQGTKVEIKR
2 | – | 6.49 | 0.00344 | 531000 | – | – | – | – | – | humanized antibody with VH76 back mutation (antibody, V domains shown) VH: QVQLVQSGAEVKKPGSSVKVSCKASGGTFSNYWIDWVRQAPGQGLEWMGEILPGSGGTDYNEKFKGRVTITADTSSSTAYMELSSLRSEDTAVYYCARDDYDVFAYWGQGTLVTVSS VL: DIVMTQSPGTLSLSPGERATLSCRSSKSLLHSNGITYLYWYQQKPGQAPRLLIYQMSNLASGIPDRFSGSGSGTDFTLTISRLEPEDFAVYYCAQNLELPWTFGQGTKVEIKR
3 | – | – | – | – | – | 0.419 | 0.000353 | 844000 | – | humanized antibody hu1044-5 (VL63/69, VH38 back mutation) (antibody, human IgG1, V domains shown) VH: QVQLVQSGAEVKKPGSSVKVSCKASGGTFSNYWIDWVKQAPGQGLEWMGEILPGSGGTDYNEKFKGRVTITADTSTSTAYMELSSLRSEDTAVYYCARDDYDVFAYWGQGTLVTVSS VL: DIVMTQSPGTLSLSPGERATLSCRSSKSLLHSNGITYLYWYQQKPGQAPRLLIYQMSNLASGVPDRFSSSGSGTDFTLTISRLEPEDFAVYYCAQNLELPWTFGQGTKVEIKR
4 | – | – | – | – | – | 0.42 | 0.00038 | 904000 | – | humanized antibody hu1044-6 (VL63/69, VH68 back mutation) (antibody, human IgG1, V domains shown) VH: QVQLVQSGAEVKKPGSSVKVSCKASGGTFSNYWIDWVRQAPGQGLEWMGEILPGSGGTDYNEKFKGRATITADTSTSTAYMELSSLRSEDTAVYYCARDDYDVFAYWGQGTLVTVSS VL: DIVMTQSPGTLSLSPGERATLSCRSSKSLLHSNGITYLYWYQQKPGQAPRLLIYQMSNLASGVPDRFSSSGSGTDFTLTISRLEPEDFAVYYCAQNLELPWTFGQGTKVEIKR
5 | – | – | – | – | ≤ 2 | 0.442 | 0.000386 | 875000 | – | humanized antibody hu1044 (VL69, VH38 back mutation) (antibody, V domains shown, also called final humanized antibody hu1044) VH: QVQLVQSGAEVKKPGSSVKVSCKASGGTFSNYWIDWVKQAPGQGLEWMGEILPGSGGTDYNEKFKGRVTITADTSTSTAYMELSSLRSEDTAVYYCARDDYDVFAYWGQGTLVTVSS VL: DIVMTQSPGTLSLSPGERATLSCRSSKSLLHSNGITYLYWYQQKPGQAPRLLIYQMSNLASGIPDRFSSSGSGTDFTLTISRLEPEDFAVYYCAQNLELPWTFGQGTKVEIKR
6 | – | 7.07 | 0.00327 | 463000 | – | – | – | – | – | humanized antibody with VH77 back mutation (antibody, V domains shown) VH: QVQLVQSGAEVKKPGSSVKVSCKASGGTFSNYWIDWVRQAPGQGLEWMGEILPGSGGTDYNEKFKGRVTITADTSTNTAYMELSSLRSEDTAVYYCARDDYDVFAYWGQGTLVTVSS VL: DIVMTQSPGTLSLSPGERATLSCRSSKSLLHSNGITYLYWYQQKPGQAPRLLIYQMSNLASGIPDRFSGSGSGTDFTLTISRLEPEDFAVYYCAQNLELPWTFGQGTKVEIKR
7 | – | – | – | – | – | 0.375 | 0.000376 | 1e+06 | – | humanized antibody hu1044-7 (VL63/69, VH67/68 back mutation) (antibody, human IgG1, V domains shown) VH: QVQLVQSGAEVKKPGSSVKVSCKASGGTFSNYWIDWVRQAPGQGLEWMGEILPGSGGTDYNEKFKGKATITADTSTSTAYMELSSLRSEDTAVYYCARDDYDVFAYWGQGTLVTVSS VL: DIVMTQSPGTLSLSPGERATLSCRSSKSLLHSNGITYLYWYQQKPGQAPRLLIYQMSNLASGVPDRFSSSGSGTDFTLTISRLEPEDFAVYYCAQNLELPWTFGQGTKVEIKR

The remaining lines, values behind:

Row | Binder | fold lower affinity than the chimeric antibody [1] [fold] | Kd [2] [nM] | koff [2] [s⁻¹] | kon [2] [M⁻¹ s⁻¹] | fold of the affinity constant of the chimeric antibody [1] [fold] | Kd [3] [nM] | koff [3] [s⁻¹] | kon [3] [M⁻¹ s⁻¹] | fold difference in affinity from the chimeric antibody [1] [fold]
8 | humanized antibody h1044-0 (antibody, V domains shown, also called humanized h1044-0 antibody after CDR transplantation) VH: QVQLVQSGAEVKKPGSSVKVSCKASGGTFSNYWIDWVRQAPGQGLEWMGEILPGSGGTDYNEKFKGRVTITADTSTSTAYMELSSLRSEDTAVYYCARDDYDVFAYWGQGTLVTVSS VL: DIVMTQSPGTLSLSPGERATLSCRSSKSLLHSNGITYLYWYQQKPGQAPRLLIYQMSNLASGIPDRFSGSGSGTDFTLTISRLEPEDFAVYYCAQNLELPWTFGQGTKVEIKR | ~32 | 8.48 | 0.00427 | 503000 | – | – | – | – | –
9 | humanized antibody with VH1 back mutation (antibody, V domains shown) VH: EVQLVQSGAEVKKPGSSVKVSCKASGGTFSNYWIDWVRQAPGQGLEWMGEILPGSGGTDYNEKFKGRVTITADTSTSTAYMELSSLRSEDTAVYYCARDDYDVFAYWGQGTLVTVSS VL: DIVMTQSPGTLSLSPGERATLSCRSSKSLLHSNGITYLYWYQQKPGQAPRLLIYQMSNLASGIPDRFSGSGSGTDFTLTISRLEPEDFAVYYCAQNLELPWTFGQGTKVEIKR | – | 9.14 | 0.00382 | 418000 | – | – | – | – | –
10 | humanized antibody hu1044-4 (VL69, VH68 back mutation) (antibody, human IgG1, V domains shown) VH: QVQLVQSGAEVKKPGSSVKVSCKASGGTFSNYWIDWVRQAPGQGLEWMGEILPGSGGTDYNEKFKGRATITADTSTSTAYMELSSLRSEDTAVYYCARDDYDVFAYWGQGTLVTVSS VL: DIVMTQSPGTLSLSPGERATLSCRSSKSLLHSNGITYLYWYQQKPGQAPRLLIYQMSNLASGIPDRFSSSGSGTDFTLTISRLEPEDFAVYYCAQNLELPWTFGQGTKVEIKR | – | – | – | – | ≤ 2 | 0.461 | 0.000388 | 841000 | –
11 | humanized antibody with VH25 back mutation (antibody, V domains shown) VH: QVQLVQSGAEVKKPGSSVKVSCKATGGTFSNYWIDWVRQAPGQGLEWMGEILPGSGGTDYNEKFKGRVTITADTSTSTAYMELSSLRSEDTAVYYCARDDYDVFAYWGQGTLVTVSS VL: DIVMTQSPGTLSLSPGERATLSCRSSKSLLHSNGITYLYWYQQKPGQAPRLLIYQMSNLASGIPDRFSGSGSGTDFTLTISRLEPEDFAVYYCAQNLELPWTFGQGTKVEIKR | – | 6.02 | 0.00317 | 525000 | – | – | – | – | –
12 | humanized antibody hu1044-3 (VL69, VH48 back mutation) (antibody, human IgG1, V domains shown) VH: QVQLVQSGAEVKKPGSSVKVSCKASGGTFSNYWIDWVRQAPGQGLEWIGEILPGSGGTDYNEKFKGRVTITADTSTSTAYMELSSLRSEDTAVYYCARDDYDVFAYWGQGTLVTVSS VL: DIVMTQSPGTLSLSPGERATLSCRSSKSLLHSNGITYLYWYQQKPGQAPRLLIYQMSNLASGIPDRFSSSGSGTDFTLTISRLEPEDFAVYYCAQNLELPWTFGQGTKVEIKR | – | – | – | – | ≤ 2 | 0.554 | 0.000494 | 882000 | –
13 | 1044 human-mouse chimeric antibody (antibody, V domains shown) VH: EVQLQQSGTELMKPGASVKISCKATGGTFSNYWIDWVKQRPGHGLEWIGEILPGSGGTDYNEKFKGKATFTADTSSNTAYMQLSSLTSEDSAVYYCARDDYDVFAYWGQGTLVTVSA VL: DIVMTQAAFSNPVTLGTSASISCRSSKSLLHSNGITYLYWYLQKPGQSPQLLIYQMSNLASGVPDRFSSSGSGTDFTLRISRVEAEDVGVYYCAQNLELPWTFGGGTKLEIKR | – | 0.262 | 0.000229 | 874000 | – | 0.278 | 0.000293 | 1.05e+06 | –

— patent US20210277144A1 (SHANGHAI INSTITUTE OF BIOLOGICAL PRODUCTS, published 2021)
